This note sets out measurements from publication PMC4638040.

Changes are numbered by the printed parent chain. In names and notes the source's numbering stands.

For experiment [1], the target named is T1, Carboxy-terminus of Hsc70-interacting protein (CHIP), His-tagged, wild type, Q9UNE7.
T1 chain: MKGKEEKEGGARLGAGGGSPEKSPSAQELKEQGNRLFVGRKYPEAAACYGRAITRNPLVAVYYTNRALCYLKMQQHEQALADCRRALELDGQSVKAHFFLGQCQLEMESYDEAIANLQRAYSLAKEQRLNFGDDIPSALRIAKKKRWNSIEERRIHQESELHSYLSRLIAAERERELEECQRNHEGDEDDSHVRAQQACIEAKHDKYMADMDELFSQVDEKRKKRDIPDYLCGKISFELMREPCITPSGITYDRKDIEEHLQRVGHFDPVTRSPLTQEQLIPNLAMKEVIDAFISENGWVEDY
Briefly: competition binding assay on microtitre wells (luminometer, anti-CHIP antibody). The conditions noted are these: chain shown with the change; signal is His-CHIP wt remaining bound to immobilized GST-IRF-1 in the presence of 5 uM peptide (highest dose); lower signal = more competition by the peptide …; parent: est. 0.05; read off a plot.

For experiment [2], the target named is T2, Carboxy-terminus of Hsc70-interacting protein (CHIP), untagged, K30A mutant (human), Q9UNE7.
T2 chain: T1 chain with K30A
Briefly: SEC + other: dynamic light scattering; purified CHIP-K30A; supplemental Fig. S2C, S2D (not shown). The conditions noted are these: remark: other sources report otherwise.

B1: Hsp70 C-terminal peptide GPTIEEVD (residues 634-641), biotin-SGSG at the N terminus P635A; T636A; I637A (peptide)
chain: SGSGGAAAEEVD
Turning to B1, the response in experiment [1] worked out at 1.2 RLU.

B2: Carboxy-terminus of Hsc70-interacting protein (CHIP), untagged, K30A mutant, Q9UNE7 1-303 (enzyme)
chain: T1 chain with K30A
In general, stoichiometry N refers to a count of units in the complex or per binding partner. Consider B2, for which, in experiment [2], the stoichiometry N is 2.
